The results in this text go back to PMC4675670.

Substrate in this data set: O=C(O)[C@@H]1CCCN1
As to the kind of experiment: enzyme kinetics, Km. The format is biochemical, Homo sapiens.

B1: human EPRS (bifunctional glutamyl-prolyl-tRNA synthetase) (Homo sapiens) (protein)
chain: MATLSLTVNSGDPPLGALLAVEHVKDDVSISVEEGKENILHVSENVIFTDVNSILRYLARVATTAGLYGSNLMEHTEIDHWLEFSATKLSSCDSFTSTINELNHCLSLRTYLVGNSLSLADLCVWATLKGNAAWQEQLKQKKAPVHVKRWFGFLEAQQAFQSVGTKWDVSTTKARVAPEKKQDVGKFVELPGAEMGKVTVRFPPEASGYLHIGHAKAALLNQHYQVNFKGKLIMRFDDTNPEKEKEDFEKVILEDVAMLHIKPDQFTYTSDHFETIMKYAEKLIQEGKAYVDDTPAEQMKAEREQRIDSKHRKNPIEKNLQMWEEMKKGSQFGQSCCLRAKIDMSSNNGCMRDPTLYRCKIQPHPRTGNKYNVYPTYDFACPIVDSIEGVTHALRTTEYHDRDEQFYWIIEALGIRKPYIWEYSRLNLNNTVLSKRKLTWFVNEGLVDGWDDPRFPTVRGVLRRGMTVEGLKQFIAAQGSSRSVVNMEWDKIWAFNKKVIDPVAPRYVALLKKEVIPVNVPEAQEEMKEVAKHPKNPEVGLKPVWYSPKVFIEGADAETFSEGEMVTFINWGNLNITKIHKNADGKIISLDAKLNLENKDYKKTTKVTWLAETTHALPIPVICVTYEHLITKPVLGKDEDFKQYVNKNSKHEELMLGDPCLKDLKKGDIIQLQRRGFFICDQPYEPVSPYSCKEAPCVLIYIPDGHTKEMPTSGSKEKTKVEATKNETSAPFKERPTPSLNNNCTTSEDSLVLYNRVAVQGDVVRELKAKKAPKEDVDAAVKQLLSLKAEYKEKTGQEYKPGNPPAEIGQNISSNSSASILESKSLYDEVAAQGEVVRKLKAEKSPKAKINEAVECLLSLKAQYKEKTGKEYIPGQPPLSQSSDSSPTRNSEPAGLETPEAKVLFDKVASQGEVVRKLKTEKAPKDQVDIAVQELLQLKAQYKSLIGVEYKPVSATGAEDKDKKKKEKENKSEKQNKPQKQNDGQRKDPSKNQGGGLSSSGAGEGQGPKKQTRLGLEAKKEENLADWYSQVITKSEMIEYHDISGCYILRPWAYAIWEAIKDFFDAEIKKLGVENCYFPMFVSQSALEKEKTHVADFAPEVAWVTRSGKTELAEPIAIRPTSETVMYPAYAKWVQSHRDLPIKLNQWCNVVRWEFKHPQPFLRTREFLWQEGHSAFATMEEAAEEVLQILDLYAQVYEELLAIPVVKGRKTEKEKFAGGDYTTTIEAFISASGRAIQGGTSHHLGQNFSKMFEIVFEDPKIPGEKQFAYQNSWGLTTRTIGVMTMVHGDNMGLVLPPRVACVQVVIIPCGITNALSEEDKEALIAKCNDYRRRLLSVNIRVRADLRDNYSPGWKFNHWELKGVPIRLEVGPRDMKSCQFVAVRRDTGEKLTVAENEAETKLQAILEDIQVTLFTRASEDLKTHMVVANTMEDFQKILDSGKIVQIPFCGEIDCEDWIKKTTARDQDLEPGAPSMGAKSLCIPFKPLCELQPGAKCVCGKNPAKYYTLFGRSY
One may read the Km as the concentration of substrate that gives half-maximal velocity. On to B1, for which the Michaelis constant (Km) is 135.4 µM.
